# B1: Lon protease homolog, mitochondrial (Homo sapiens), P36776 (parent)
# chain: MAASTGYVRLWGAARCWVLRRPMLAAAGGRVPTAAGAWLLRGQRTCDASPPWALWGRGPAIGGQWRGFWEASSRGGGAFSGGEDASEGGAEEGAGGAGGSAGAGEGPVITALTPMTIPDVFPHLPLIAITRNPVFPRFIKIIEVKNKKLVELLRRKVRLAQPYVGVFLKRDDSNESDVVESLDEIYHTGTFAQIHEMQDLGDKLRMIVMGHRRVHISRQLEVEPEEPEAENKHKPRRKSKRGKKEAEDELSARHPAELAMEPTPELPAEVLMVEVENVVHEDFQVTEEVKALTAEIVKTIRDIIALNPLYRESVLQMMQAGQRVVDNPIYLSDMGAALTGAESHELQDVLEETNIPKRLYKALSLLKKEFELSKLQQRLGREVEEKIKQTHRKYLLQEQLKIIKKELGLEKDDKDAIEEKFRERLKELVVPKHVMDVVDEELSKLGLLDNHSSEFNVTRNYLDWLTSIPWGKYSNENLDLARAQAVLEEDHYGMEDVKKRILEFIAVSQLRGSTQGKILCFYGPPGVGKTSIARSIARALNREYFRFSVGGMTDVAEIKGHRRTYVGAMPGKIIQCLKKTKTENPLILIDEVDKIGRGYQGDPSSALLELLDPEQNANFLDHYLDVPVDLSKVLFICTANVTDTIPEPLRDRMEMINVSGYVAQEKLAIAERYLVPQARALCGLDESKAKLSSDVLTLLIKQYCRESGVRNLQKQVEKVLRKSAYKIVSGEAESVEVTPENLQDFVGKPVFTVERMYDVTPPGVVMGLAWTAMGGSTLFVETSLRRPQDKDAKGDKDGSLEVTGQLGEVMKESARIAYTFARAFLMQHAPANDYLVTSHIHLHVPEGATPKDGPSAGCTIVTALLSLAMGRPVRQNLAMTGEVSLTGKILPVGGIKEKTIAAKRAGVTCIVLPAENKKDFYDLAAFITEGLEVHFVEHYREIFDIAFPDEQAEALAVER
# partner: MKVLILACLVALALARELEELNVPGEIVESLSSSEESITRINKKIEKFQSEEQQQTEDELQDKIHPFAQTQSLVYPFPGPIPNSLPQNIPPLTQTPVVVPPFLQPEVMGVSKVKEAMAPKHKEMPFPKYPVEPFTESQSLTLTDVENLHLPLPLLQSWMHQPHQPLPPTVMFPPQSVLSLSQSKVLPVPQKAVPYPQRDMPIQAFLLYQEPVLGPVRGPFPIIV
# Variants of: B1
# Settings: with casb_bovin CSN2, P02666
row,effect of a mutation on the interaction,Variant
1,decreasing interaction,G894P

# Variants of: B1
# Settings: with casb_bovin CSN2, P02666
# Remark: another data set of the same source
row,effect of a mutation on the interaction,Variant
1,decreasing interaction,G893P;G894A

# Variants of: B1
# Settings: with casb_bovin CSN2, P02666
# Remark: another data set of the same source
row,effect of a mutation on the interaction,Variant
1,decreasing interaction,G893A;G894P

# Variants of: B1
# Settings: with casb_bovin CSN2, P02666
# Remark: another data set of the same source
row,effect of a mutation on the interaction,Variant
1,decreasing interaction,W770P

# Variants of: B1
# Settings: with casb_bovin CSN2, P02666
# Remark: another data set of the same source
row,effect of a mutation on the interaction,Variant
1,decreasing interaction,G893P

# Variants of: B1
# Settings: with casb_bovin CSN2, P02666
# Remark: another data set of the same source
row,effect of a mutation on the interaction,Variant
1,decreasing interaction,K529R

# — IntAct's records for PubMed 24520911
